In the nanobody polyreactivity screen of Harvey et al. (2022):

Assay: yeast display, Sf9 membrane polyspecificity reagent, FACS + sequencing; frameworks hold sequencing errors
Outline: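 Nanobodies from a synthetic yeast display library (Saccharomyces cerevisiae BJ5465), induced 36–48 hours with galactose, were stained 1 hour at 4 °C with 10% biotinylated, detergent-solubilized Sf9 membrane reagent, enriched on streptavidin microbeads, then FACS-sorted. Anti-HA (expression) and streptavidin (reagent binding) fluorescence set low and high (top ~1%) gates. Polyreactivity labels come from the gate of origin. Genes were colony-PCR amplified, MiSeq 2 × 250 sequenced and filtered by CDR length.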

Sequence | polyreactivity (PSR sort gate)
QVQLVESGVGLDQAGGSLRLSCAASGSIFRRYAMGWYRQAHGKERELVAAISSNGGSTYYADSVKGRFTISRDNAKNTVYLQMNSLKPEDTAVYYCTAPPLYRDEYWGQGTQVTVAS | high polyreactivity
QVQLVESGGGLVQAGGSLRLSCAASGSIFAKYAMGLYRQAPGKERELVAGITRGGSTYYADSVKGRFTISRDNAKNTVYLQMNSLKQEDTAVYYCAAKRHTSLYVYYYWGLGTQVTVSS | high polyreactivity
QGQLVESGGGLVQAGGSLRLSSAASGSTFAHYAMGWYRQAPGKERELVAAISRGGGSTYYADSVKGRFTISRDNAKNTVYVQMNSLKPEDTAVYYCAADPRYRVTLGFDYWGQGTQVTVSS | high polyreactivity
QVQLVESGGGLVQAGGSLRLSCAASGRTFRGNAMGWYRQAPGKERELVAAISRSGGRTYYADSVKGRFTISRDNAKNTVYLQMNSLKPEDTAVYYCNARSYRRWGYYKQAPNGDYWGQGTQVTVSS | high polyreactivity
QVQLVESGGGLVQAGGSLRLSCAASGRTFYPYAMGWYRQAPRKERELVAAISRSGGSTYADSVKGRFTISRDNAKNTVYLQMNSLKREDTAVYYCATRRKTYLSFNYDYWGQGTQVTVSS | low polyreactivity
QVQLVESGGRLFQAGGSLRLSCPASGFTFVYNAMGWYRQAPGKERELVATISSGGGRTYYADSVKGRFTISGDNAKNTVSLQKYSQKPEDTAVYYCATVRRTSSGERHEFWGQGTQVTVSS | low polyreactivity
QVQLVESGGGLVQAGGSLRLSCAASGLIFGRYAMGWYRQAPGKERELVAAISSSGVRTYYADSVKGRFTISRDNAKNTVYLQMNSLKPEDTAVSYCAAAYWSSREDTVIKSYYWGQGTQVTVSS | high polyreactivity
QVQLVESGGGLVQAGGSLRLSCAGSGSTFWVNDMGWSRQAPGKERELVASITISTGATYYADSVKGRFTISRDTAKNTVYVQINSLKPEDTAVYYCNVEFENSGWKSFDYWGQGTQVTVSS | low polyreactivity
QVQLEESGGGLVQAGGSLRLSCAASGYTFSFYAMGWYRQAPGKERELVAAISRSGGSTYYADSVKGRFTISRDNAKNTVYLQMNSLKPEDTAVYYCAARWPGAYHEYGYWGQGTQVTVSS | high polyreactivity
QVQLVESGGGLVQAGGSLRLSCADSGFIFATNAMGWYRQAPGKERDFVAAITSGGSTYYADSVKGRFTISRDNAKNTVYLQMNSLKPEDTAVYYCNARTYSRVTRQTYRYRPYDYWGQGTQVSVSS | high polyreactivity
QVQLVESGGGLVQAGGSLRLSCAASGSTFGIYARGWYIQAPGKEWDLVAAITWIGSDTYYADSVKGRFTISRDNAKNTVYLQMISLKPEDTAVYYCNAVKLLGTRGYGYWGQGTQVTVSS | high polyreactivity
QVQLVESGGGLVQAGGSLRLSCAASGPTFFYYAMGWYRQAPGKERELVAAIRRSGGRTRYADSVKGRFTISRDNAKNTVYLQMNSLKPEDTAVYYCAADDGTHRRGYDYWGQGTQVTVSS | low polyreactivity
QVQLVESGGGLVQAGGSLRLSCAASGSTFSNYAMGWYRQAPGKERELVAAISRRGTSTYYADSVKGRFTISRDNAKNTVYLQMNSLKPEDTAVYYCAADYFRYTYDYWGQGTQVTVSS | high polyreactivity
QVQLVESGGGLVQAGGSLRLSCAASGSIFYDNAMGWYRQAPGKERELVAAITIDGSTYADSVKGRFTISRDNAKYTVYLQMNSLKPEDTAVYYCAAEWDTNFWYDYWGQGTQVTVSS | low polyreactivity
QVQLVESGGGLVQAGGSLRLSCAATGRNFRYNAIGWYRQATGKERELVATISRGGGSTYYADSVKGRFTISRDNAQNTVYLQMNSLKPEDTAVYYCATRYYQDIVGYSRYDYWGQGTQVTVSS | high polyreactivity
QVQLVESGGGLVQAGGSLRLSCAASGSIFYHYAMGWYRQAPGKERELVAAISRSGGRTYYADSVKGRFTISRDNAKNTVYLQMNSLKPEDTAVYYCNKDYYYPNSWPKYDYWGQGTQVTVSS | low polyreactivity
QVQLVESGGGLVQAGGSLRLSCAASGRIFGPYAMGWYRQAPGKERELVAAIRASSSSTYYADSVKGRFTISRDNAKNTVYVQMNSLKPEDTAVYYCAADWYYGYAWKYGYWGQGTQVTVSS | low polyreactivity
QVQLVESGGGLVQAGGSLRLSCAASGSTFEYYAMGWYRQAPGKERELVAAISTSGGSTYYADSVKGRFTISRDNAKNTVYLQMNSLKPEDTAVYYCNRGRRYSHKYDYWGQGTQVTVSS | high polyreactivity
QVQLVESGGGLVQAGGSLRLSCAASGSIFADYAMGWYRQAPGKERELVAVISRRGGTTYYADSVKGRFTISRDNAKNTVYLQMNSLKPEDTAVYYCAARRSFNEYDYWGQGTQVTVSS | high polyreactivity
QVQLVESGGGLVQAGGSLRLSCAASASIFDDNAMGWYRQAPGKERELVAGISRGGSTNYADSVKGRFTISRDNAKNTVYLQMNSLKPEDTAVYYCNKRYKPSWTTYDYWGQGTQVTVSS | low polyreactivity
QVQLVESGGGLVQAGGSLRLSCAASGNTFVYYAMGWYRQAPGKERELVAAISSSGGRTYYADSVKGRFTISRDNAKNTVYLQMNSLKPEDTAVYYCAARGPYTTKAYDYWGQGTQVTVSS | high polyreactivity
QVQLVESGGGLVQAGGSLRISCAASGSIFYRNVMGWYRQAPGKERELVAAISSSGGRTHYADSVKGRFTISRDNAKNTVYLQMNSLKPEDTAVYYCTALYAPQEYGRRFPNDYWGQGTQVTVSS | high polyreactivity

Sequence | polyreactivity (PSR sort gate)
HVQLVESGGGLVQAGGSLRLSCAASGFTFPIYTMGWYRQAPGKESELVAAISASGGRTYYADSVKGRFTISRDNAKNTVYFQMNSLNPEDTSVYFCAADGYRAPGNAYYYWGQGTQVTVSS | high polyreactivity
QVQLVESGGGLVQAGGSLRLSCAASGSIFYLYALGWYRQAPGKERELVAAISSSGGRTYYADSVKGRFTISRDNAKNTVYLQMNSLKPEDTAVYYCAARYWAKYSYGYWGQGTQVTVSS | high polyreactivity
QVQLVESGGGLVQAGGSLRLSCAASGGIFKKYAMGWYRQAPGKERELVAVITSGGRTNYADSVKGRFTISRDNAKNTVYLLMNSLKPEDTAVYYCAAVYVTGSYRYGYWGQGSQVTVSS | high polyreactivity
QVQLVESGGGLVQAGGSLRLSCAASGLTFTAYAMGWYRQAPGKERELVAAISVRGGRTYYADSVKGRFTISRDNAKNTVYLQMNSLKPEDTAVYYCNAVRFISARYDYWGQGTQVTVSS | high polyreactivity
QVQLQESGGGLVQACGSLRLSCAASGYIFSHQYMGLYRQAPGKERELVASISPGATTNYADSVKGRLTISRDNAKNTVYLQMNSLKPEDTAVYYYAVYQILDRRLSYWGQGTQVTVSC | high polyreactivity
QVQLVESGGGLVQAGGSLRLSCAASGSIFDANAMGCYRQAPGKERELVAAINWTGGSTYYADSVKGRFTISRDNAKNTVYLQMNSLKPEDTAVYYCAAEWWYPYNPDIYYYWGQGIQVTVSS | high polyreactivity
QVQLVESGGGLVQAGGSLRLSCAASGRTFGWYTMGWYRQAPGKEREFVAAISSSDTSTYYADSVKGRFTISRDNAKNTVYLQMNSLKPEDTAVYYCAADPPSWLWFVGYSYDYWGQGTQVTVTS | low polyreactivity
QFQLVESGGGLLQAGGSLRLSCAASGSTFYRYVMGWYRQATGKERELVAAITWRGGTTYYADSVKGRFTISRDNAKNTVYLKMISLKPDDTAVYYCNADRGGLRWFWQVLYDYWGQGTQVTVSS | low polyreactivity
QVQLVESGGGLVQAGGSLRLSCAASGSTFSRYAMRWYRQAPGKEMELVAAISSRGGSTYYADSVKGRFTISRDNAMNTVYLQMNSLKPEDTAFYYCAVKSYRLTGRGYWGQGTQVTVSS | high polyreactivity
QVQLVESGGGLVQAGGSLRLSCAASGSTLRRNAMGWYRQAPGKERELVAAISSGGSTYYADSVKGRFTISRDNAKNTVYLQMNSLKPEDTAVYYCNAAVPRGRYTSYYRSGWLDYWGQGTQVTVSS | high polyreactivity
QVQLVESGGGLVQAGGSLRLSCAASGRTFFRNAMGWYRQAPAKERELVAGISRSGGSTYYADSVKGRFTISRDNAQNTFSLEMNSLKPEDSAVYYFAAALYPYPGYEYWGQGTQVTVSS | high polyreactivity
QVQLVESGGGLVQAGGSLRLSCAASGSIFLYNAMRWYRQAPGKERELVAAKSYSGASTYYADSVKGRFTISRDNAKNTVYLQMNSLKAEDTAVYYCAKTFRYKWPYGTPKYDYWGQGTQVTVSS | high polyreactivity
QVQLVESGGGLVQAGGTIRLSCAASGIIFRLNPMGWYRQAPGKERELVAAIRRRGGSTYYADSVKGRFTISRDNGKNNVYLQMYSVKPEETEVYHCAKDPHGSDFGYWGQGTHVTVSS | low polyreactivity
QVQLVESGGGLVQAGGSLRLSCAASGSTFVYYAMGWYRQAPGKEREFVAGITRRTGSTYYADSVKGRFTISRDNAKNTVYLQMNSLKPEDTAVYYCAKRDARATPFGYWGQGTQVTVSS | high polyreactivity
QVQLVESGGGLVQAGGSLRLSCAASGFIVNVYAMVWYRQAPGKERELVAAISTSGSNTYYADSVKGRFTISLDNAKNTVYLQMNSLKPEDTAVYYCNAVRDRVRWHYYAVYYWGQGTQVTVSS | high polyreactivity
QVQLVESGGGLVQAGGSLRLSCAASGFTFTTYVMGWYRQAPGKERELVAAISRRGTSTRYADSVKGRFTISRDNAKNTVYLQMNSLKPEDTAVYYCAADRPYSIVPYDYWGQGTQVTVSS | high polyreactivity
QVQLVESGAGLVQAGGSLRLSCAASGSTFSYYTMGWYRHAPGKERELVAAITSGGPTNYADSVKGRFTISRDNAKNTVYLQMNSLKPEDTAVYYCAAALYYGWGYYYWGQGTQVTVSS | low polyreactivity
QVQLVESGGGLVQAGGSLRLSCAASRSTFTGNAMGWYRQAPGNERELVASINGSSGSTYYADSVKGRFTISRDNAKNTVYLQMNSLKPEDTAVYYCAKDSFLHFPRVGWVGLEYWGQGTQVTVSS | low polyreactivity
QVQLVESGGGLVQAGGSLRLSCAASGRTFYPYAMGWYRQAPGKERELVAAISWNGGRTYYADSVKGRFTISRDNAKNTVYLQMTSLKPEDTAVYYCAADTAYYGFDYWGQGTQVTVSS | low polyreactivity
QVQIVESGGRLVQAGCSLRLSCAASGSTFKINAMGWYRQAPGKEWELVAVIRSRGTSTYYADSVKGRFTISRDNSKNTVYLQMNSLKPVDTAVYNCAAGRINGGDYWGQGTQVTVSS | high polyreactivity
QVQLVESGGGLVQEGGSLRLSCAASGYTFGRYFMGWYRQAPGKEREFVAAISRGGGSTYYADSVKGRFTISRDNAKNTVYLQMNSLKPEDTAVYYCDTRSSNAEYWGQGTQVTVSS | high polyreactivity
